# B1: Pneumolysin (PLY), wild type, His-tagged (natural protein, Streptococcus pneumoniae D39, UniProt Q04IN8 1-471, looked up)
# chain: MANKAVNDFILAMNYDKKKLLTHQGESIENRFIKEGNQLPDEFVVIERKKRSLSTNTSDISVTATNDSRLYPGALLVVDETLLENNPTLLAVDRAPMTYSIDLPGLASSDSFLQVEDPSNSSVRGAVNDLLAKWHQDYGQVNNVPARMQYEKITAHSMEQLKVKFGSDFEKTGNSLDIDFNSVHSGEKQIQIVNFKQIYYTVSVDAVKNPGDVFQDTVTVEDLKQRGISAERPLVYISSVAYGRQVYLKLETTSKSDEVEAAFEALIKGVKVAPQTEWKQILDNTEVKAVILGGDPSSGARVVTGKVDMVEDLIQEGSRFTADHPGLPISYTTSFLRDNVVATFQNSTDYVETKVTAYRNGDLLLDHSGAYVAQYYITWDELSYDHQGKEVLTPKAWDRNGQDLTAHFTTSIPLKGNVRNLSVKIRECTGLAWEWWRTVYEKTDLPLVRKRTISIWGTTLYPQVEDKVEND
# notes: no cleavage of the tag is described; also called PLY-WT
# Target: the molecule itself
# Test: SDS-PAGE without reducing agent (oligomerization assay) with Western blot; PLY 0.4 uM in solution without cholesterol or membranes, incubated 1 hr at 37°C with 0, 2.18, 4.36 or 8.73 uM EGCG (control with DMSO only); 5x loading buffer without β-ME, 10 min at 50°C; 6% SDS-PAGE, Western blot; oligomerization reduced by EGCG in a concentration-dependent manner
protein,measurement,value
B1,binding result,binds

# From PMC5618700
